Reference: the RNAGym collection of RNA variant scans (doi:10.1093/molbev/msab373)

B1: Azoarcus group I ribozyme (parent)
chain: GUGCCUUGCGCCGGGAAACCACGCAAGGGAUGGUGUCAAAUUCGGCGAAACCUAAGCGCCCGCCCGGGCGUAUGGCAACGCCGAGCCAAGCUUCGGCGCCUGCGCCGAUGAAGGUGUAGAGACUAGACGGCACCCACCUAAGGCAAACGCUAUGGUGAAGGCAUAGUCCAGGGAGUGGCGAAAGUCACACAAACCGG

Variants of: B1
Assay: reverse-splicing fitness (ratio to wild type); higher = more active; in vitro selection; Mg2+ level not given
In short: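 An in vitro group I ribozyme library with randomized positions was T7-transcribed and gel-purified. In triplicate, 10 pmol RNA in EPPS pH 7.5 was reacted with 50 pmoles of a 30-nt RNA substrate for 1 h at 37 °C across several added MgCl2 levels (1–48 mM), then stopped with EDTA. Products were reverse transcribed from a substrate-complementary primer, PCR-amplified and sequenced (HiSeq 4000). Fitness is a variant's read proportion after selection over that before, normalised to wild type.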

| Variant | reverse-splicing fitness |
| --- | --- |
| C82U A111U A120G A145U C150G C169G | 0.00671 |
| C82U A111U A120G A145U C150G C169A | 0.00759 |
| C82U A111U A120G A145U C150G C169U | 0.00779 |
| C82U A111U A120G A145G C150A C169U | 0.00848 |
| C82U A111U A120G A145G C150A C169G | 0.00828 |
| C82U A111U A120G A145G C150A C169A | 0.0105 |
| C82U A111U A120G A145U | 0.0147 |
| C82U A111U A120G A145G | 0.0162 |
| C82U A111U A120G A145C | 0.0134 |
| C82U A111U A120G A145G C169G | 0.00995 |
| C82U A111U A120G A145G C169A | 0.01 |
| C82U A111U A120G A145G C169U | 0.00849 |
| C82U A111U A120C C150G | 0.00758 |
| C82U A111U A120C C150U | 0.0179 |
| C82U A111U A120C C150A | 0.0106 |
| C82U A111U A120C C150U C169G U176A | 0.0138 |
| C82U A111U A120C C150U C169G U176G | 0.00509 |
| C82U A111U A120C C150U C169G U176C | 0.0147 |
| C82U A111U A120C A145U C150U C169A | 0.00828 |
| C82U A111U A120C A145U C150U C169G | 0.00796 |
| C82U A111U A120C A145U C150U C169U | 0.0101 |

| Variant | reverse-splicing fitness |
| --- | --- |
| C82U A111U A120C A145G C169G U176G | 0.00473 |
| C82U A111U A120C A145G C169G U176A | 0.0152 |
| C82U A111U A120C A145G C169G U176C | 0.0209 |
| C82U A111U A120C A145U C150A C169G U176A | 0.0124 |
| C82U A111U A120C A145U C150A C169G U176G | 0.00527 |
| C82U A111U A120C A145U C150A C169G U176C | 0.0124 |
| C82U A111U A120G A145C C150U C169G U176A | 0.0216 |
| C82U A111U A120G A145C C150U C169G U176C | 0.0111 |
| C82U A111U A120G A145C C150U C169G U176G | 0.00484 |
| C82U A111U A120G A145C C150A C169U U176A | 0.0189 |
| C82U A111U A120G A145C C150A C169U U176C | 0.00977 |
| C82U A111U A120G A145C C150A C169U U176G | 0.00474 |
| C82U A111U A120C A145U C150A C169G | 0.00687 |
| C82U A111U A120C A145U C150A C169A | 0.00772 |
| C82U A111U A120C A145U C150A C169U | 0.00908 |
| C82U A111U A120C A145U C150U | 0.0196 |
| C82U A111U A120C A145U C150A | 0.00878 |
| C82U A111U A120C A145U C150G | 0.0076 |
| C82U A111U A120G A145U C150A C169G U176G | 0.0044 |
| C82U A111U A120G A145U C150A C169G U176C | 0.0136 |
| C82U A111U A120G A145U C150A C169G U176A | 0.0132 |

| Variant | reverse-splicing fitness |
| --- | --- |
| C82U A111U A120G A145U C150G C169G U176G | 0.00385 |
| C82U A111U A120G A145U C150G C169G U176A | 0.00623 |
| C82U A111U A120G A145U C150G C169G U176C | 0.00435 |
| C82U A111U A120C A145U C169U U176C | 0.0136 |
| C82U A111U A120C A145U C169U U176G | 0.00395 |
| C82U A111U A120C A145U C169U U176A | 0.0155 |
| C82U A111U A120C A145U C150A C169A U176A | 0.0106 |
| C82U A111U A120C A145U C150A C169A U176C | 0.0094 |
| C82U A111U A120C A145U C150A C169A U176G | 0.00478 |
| C82U A111U A120G A145U C150G U176A | 0.00538 |
| C82U A111U A120G A145U C150G U176G | 0.00302 |
| C82U A111U A120G A145U C150G U176C | 0.00777 |
| C82U A111U A120C A145U C169G | 0.00727 |
| C82U A111U A120C A145U C169U | 0.0107 |
| C82U A111U A120C A145U C169A | 0.00631 |
| C82U A111U A120C C150U C169A | 0.00987 |
| C82U A111U A120C C150U C169U | 0.0134 |
| C82U A111U A120C C150U C169G | 0.00829 |
| C82U A111U A120C C150U C169A U176G | 0.00474 |
| C82U A111U A120C C150U C169A U176C | 0.0129 |
| C82U A111U A120C C150U C169A U176A | 0.015 |

| Variant | reverse-splicing fitness |
| --- | --- |
| C82U A111U A120C A145G C169A U176G | 0.00456 |
| C82U A111U A120C A145G C169A U176C | 0.0232 |
| C82U A111U A120C A145G C169A U176A | 0.0202 |
| C82U A111U A120C C150G C169G U176C | 0.00458 |
| C82U A111U A120C C150G C169G U176A | 0.00688 |
| C82U A111U A120C C150G C169G U176G | 0.00402 |
| C82U A111U A120C C150G C169G | 0.00613 |
| C82U A111U A120C C150G C169U | 0.00868 |
| C82U A111U A120C C150G C169A | 0.00864 |
| C82U A111U A120C A145G U176C | 0.0219 |
| C82U A111U A120C A145G U176A | 0.0152 |
| C82U A111U A120C A145G U176G | 0.00517 |
| C82U A111U A120G A145C C150A C169U | 0.00623 |
| C82U A111U A120G A145C C150A C169A | 0.00756 |
| C82U A111U A120G A145C C150A C169G | 0.00785 |
| C82U A111U A120C A145G C150G C169G U176G | 0.00574 |
| C82U A111U A120C A145G C150G C169G U176A | 0.00984 |
| C82U A111U A120C A145G C150G C169G U176C | 0.0112 |
| C82U A111U A120C A145U C169G U176C | 0.00955 |
| C82U A111U A120C A145U C169G U176A | 0.00882 |
| C82U A111U A120C A145U C169G U176G | 0.00433 |
